B1: ZNF193 (parent)
chain: QCIECGKSFNRHCNLIRHQKIHTV

Variants of: B1
Assay: protein stability index of a GFP-peptide fusion (GPS, HEK-293T) (PSI 1-6); higher = more stable
Conditions: c terminus: a fixed tail appended
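Note: lentivirally expressed fusions sorted by FACS into six bins by GFP to DsRed ratio, PSI derived from sequencing read proportions per bin multiplied by bin number.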

Variant | protein stability index
Q1R | 4.1
Q1H | 3.36
Q1A | 3.14
Q1Y | 2.99
Q1I | 3.28
H18Q | 2.24
H18S | 2.36
R11S | 4.1
R11V | 3.21
R11E | 3.76
R11F | 3.07
R11M | 2.86
R11L | 3.5
R11T | 4.4
I16D | 2.96
I16W | 2.46
I16L | 3.29
I16S | 3.41
I16G | 3.02
I16K | 4
I16P | 2.56
H12E | 3.81
H12A | 3.48
H12R | 3.22

Variant | protein stability index
H12V | 3.76
H12P | 3.74
H12S | 3.22
H12C | 2.92
C2D | 2.41
C2K | 1.95
C2H | 1.6
C2P | 1.34
C2N | 2.45
C2T | 1.74
C2Q | 2.14
C2W | 2.04
L15P | 2.39
L15G | 3.04
L15W | 4.43
L15M | 3.35
C13F | 2.62
C13Y | 3.29
C13G | 3.75
C13T | 3.29
C13K | 3.74
C13M | 2.91
C13W | 3.04
H22A | 2.76

Variant | protein stability index
H22L | 2.88
H22V | 2.32
H22I | 2.25
H22G | 2.94
H22W | 1.74
H22T | 2.11
H22Y | 1.56
I21D | 3.93
I21S | 4
I21M | 3.72
I21E | 4.1
I21Y | 3.6
I21G | 3.51
I21K | 4.25
I21T | 4.39
I21A | 4
I21H | 3.77
I21R | 3.81
I21C | 3.85
I3D | 3.4
I3S | 4.17
I3V | 3.73
E4T | 3.42
E4K | 3.1

Variant | protein stability index
E4Y | 3.06
E4Q | 3.43
E4D | 2.78
E4R | 3.71
E4C | 2.54
E4F | 3.94
E4V | 3.48
E4W | 3.85
F9R | 2.77
F9E | 2.93
F9A | 2.24
F9P | 3.25
F9M | 2.51
F9W | 2.77
F9V | 1.92
F9Y | 3.01
S8E | 3.52
S8Q | 3.02
S8K | 3.64
S8M | 3.48
S8Y | 3.43
N10Q | 3.73
N10T | 4.08
N10D | 3.88

Variant | protein stability index
N10V | 3.75
N10M | 3.14
N10H | 3.91
N10A | 3.54
N14G | 2.72
N14I | 2.6
N14D | 5.09
N14T | 3.44
N14W | 2.29
Q19T | 2.79
Q19K | 3.27
Q19Y | 2.59
Q19L | 2.75
Q19R | 2.98
Q19W | 2.25
Q19N | 2.81
Q19F | 2.73
Q19C | 3.78
G6R | 2.5
G6N | 2.38
G6F | 1.59
V24D | 3.83
V24F | 3.41
V24M | 4.19

Variant | protein stability index
V24A | 4.26
V24Q | 3.87
V24G | 3.56
V24S | 4.21
V24P | 4.21
V24E | 4.36
K20E | 3.29
K20Q | 3.5
K20L | 2.93
K20P | 2.7
K20T | 2.63
K20R | 3.4
K20H | 2.9
K20G | 2.38
K20Y | 2.2
K20N | 2.61
K20S | 3.3
K20F | 2.95
K20I | 2.2
R17N | 3.24
R17M | 2.95
R17D | 3.78
R17I | 2.31
R17T | 3.75

Variant | protein stability index
R17L | 2.9
R17W | 2.66
R17V | 2.99
R17Y | 2.52
R17H | 3.13
T23R | 3.91
T23G | 3.31
T23L | 2.7
T23P | 3.23
T23F | 2.85
T23C | 3.58
T23H | 3.9
K7Y | 2.29
K7S | 2.82
K7T | 2.93
K7R | 3.05
K7C | 2.51
K7E | 3.86
C5F | 1.44
C5K | 2.09
C5Y | 2.26
C5T | 1.95
C5G | 2.01

Reference: the supplement of paper PMC10567573
